According to a protein production outcome set (Wang et al. 2014):

Assay: label from the status in PepcDB records
For “MASFPPRVNEKEIVRSRTIGELLAPAAPFDKKCGGENWTVAFAPDGSYFAWSQGYRIVKLVPWSQCLKNFLLHGSKNVTNSSCLKLARQNSNGGQKNKPREHIIDCGDIVWSLAFGSSVPEKQSRCVNIEWHRFRFGQDQLLLATGLNNGRIKIWDVYTGKLLLNLVDHIEVVRDLTFAPDGSLLLVSASRDKTLRVWDLKDDGNMVKVLRGHQNWVYSCAFSPDCSMLCSVGASKAVFLWNMDKYTMIRRLEGHHHDVVACDFSPDGALLATASYDTRVYVWDPHIGDTLMEFGHLFPPPTPIFAGGANDRWVRAVSFSHDGLHVASLADDKMVRFWSIGDDCPVQVAPLSNGLCCAFSTDGSVLAAGTHDGSVYFWATPRQVSSLQHLCRMSIRRVMPTQEVQKLPVPSKMLEFLSYRV”, the protein production was “failed”. In the case of “MASGQGPGPPRQECGEPALPSASEEQVAQDTEEVFRSYVFYRHQQEQEAEGVAAPADPEMVTLPLQPSSTMGQVGRQLAIIGDDINRRYDSEFQTMLQHLQPTAENAYEYFTKIATSLFESGINWGRVVALLGFGYRLALHVYQHGLTGFLGQVTRFVVDFMLHHCIARWIAQRGGWVAALNLGNGPILNVLVVLGVVLLGQFVVRRFFKS”, the protein production is reported as “not failed”. In the case of “MASLSQLSSHLNYTCGAENSTGASQARPHAYYALSYCALILAIVFGNGLLCMAVLKERALQTTTNYLVVSLAVADLLVATLVMPWVVYLEVTGGVWNFSICCDVFVTLDVMMCTASILNLCAISIDRYTAVVMPVHYQHGTGQSSCRRVALMITAVWVLAFAVSCPLLFGFNTTGNPTVCSISNPDFVIYSSVVSFYLPFGVTVLVYARIYVVLKQRRRKRILTRQNSQCNSVRPGFPQQTLSPDPAHLELKRYYSICQDTALGGPGFQERGGELKREEKTRNSLSPTIAPKLSLEVRKLSNGRLSTSLKLGPLQPRGVPLREKKATQMVAIVLGTFIVCWLPFFLTHVLNTHCQTCHVSPELYSATTWLGYVNSALNPVIYTTFNIEFRKAFLKILSC”, the protein production is reported as “not failed”. In the case of “MASNMDREMILADFQACTGIENIDEAITLLEQNNWDLVAAINGVIPQENGILQSEYGGETIPGPAFNPASHPASAPTSSSSSAFRPVMPSRQIVERQPRMLDFRVEYRDRNVDVVLEDTCTVGEIKQILENELQIPVSKMLLKGWKTGDVEDSTVLKSLHLPKNNSLYVLTPDLPPPSSSSHAGALQESLNQNFMLIITHREVQREYNLNFSGSSTIQEVKRNVYDLTSIPVRHQLWEGWPTSATDDSMCLAESGLSYPCHRLTVGRRSSPAQTREQSEEQITDVHMVSDSDGDDFEDATEFGVDDGEVFGMASSALRKSPMMPENAENEGDALLQFTAEFSSRYGDCHPVFFIGSLEAAFQEAFYVKARDRKLLAIYLHHDESVLTNVFCSQMLCAESIVSYLSQNFITWAWDLTKDSNRARFLTMCNRHFGSVVAQTIRTQKTDQFPLFLIIMGKRSSNEVLNVIQGNTTVDELMMRLMAAMEIFTAQQQEDIKDEDEREARENVKREQDEAYRLSLEADRAKREAHEREMAEQFRLEQIRKEQEEEREAIRLSLEQALPPEPKEENAEPVSKLRIRTPSGEFLERRFLASNKLQIVFDFVASKGFPWDEYKLLSTFPRRDVTQLDPNKSLLEVKLFPQETLFLEAKE”, the protein production is reported as “not failed”. With “MASNSSSCPTPGGGHLNGYPVPPYAFFFPPMLGGLSPPGALTTLQHQLPVSGYSTPSPATIETQSSSSEEIVPSPPSPPPLPRIYKPCFVCQDKSSGYHYGVSACEGCKGFFRRSIQKNMVYTCHRDKNCIINKVTRNRCQYCRLQKCFEVGMSKESVRNDRNKKKKEVPKPECSESYTLTPEVGELIEKVRKAHQETFPALCQLGKYTTNNSSEQRVSLDIDLWDKFSELSTKCIIKTVEFAKQLPGFTTLTIADQITLLKAACLDILILRICTRYTPEQDTMTFSDGLTLNRTQMHNAGFGPLTDLVFAFANQLLPLEMDDAETGLLSAICLICGDRQDLEQPDRVDMLQEPLLEALKVYVRKRRPSRPHMFPKMLMKITDLRSISAKGAERVITLKMEIPGSMPPLIQEMLENSEGLDTLSGQPGGGGRDGGGLAPPPGSCSPSLSPSSNRSSPATHSP” the protein production was “not failed”. With “MASQITGSFTSLTKLITAGSYLAGLGFSIGAIMKFKQHKDNPTQIPIGTPIALIFIAAALLFLPSILGVAGVTMFGGSGGKTAGPTGTIYKTN” the protein production was “failed”. For “MASRFSRVVLVLIDALRFDFAQPQHSHVPREPPVSLPFLGKLSSLQRILEIQPHHARLYRSQVDPPTTTMQRLKALTTGSLPTFIDAGSNFASHAIVEDNLIKQLTSAGRRVVFMGDDTWKDLFPGAFSKAFFFPSFNVRDLDTVDNGILEHLYPTMDSGEWDVLIAHFLGVDHCGHKHGPHHPEMAKKLSQMDQVIQGLVERLENDTLLVVAGDHGMTTNGDHGGDSELEVSAALFLYSPTAVFPSTPPEEPEVIPQVSLVPTLALLLGLPIPFGNIGEVMAELFSGGEDSQPHSSALAQASALHLNAQQVSRFLHTYSAATQDLQAKELHQLQNLFSKASADYQWLLQSPRAEATLPTVIAELQQFLRGARAMCIESWARFSLVRMAGGTALLAASCFICLLASQWAISPGFPFCPLLLTPVAWGLVGAIAYAGLLGTIELKLDLVLLGAVAAVSSFLPFLWKAWAGWGSKRPLATLFPIPGPVLLLLLFRLAVFFSDSFVVAEARATPFLLGSFILLLVVQLHWEGQLLPPKLLTMPRLGTSATTNPPRHNGAYALRLGIGLLLCTRLAGLFHRCPEETPVCHSSPWLSPLASMVGGRAKNLWYGACVAALVALLAAVRLWLRRYGNLKSPEPPMLFVRWGLPLMALGTAAYWALASGADEAPPRLRVLVSGASMVLPRAVAGLAASGLALLLWKPVTVLVKAGAGAPRTRTVLTPFSGPPTSQADLDYVVPQIYRHMQEEFRGRLERTKSQGPLTVAAYQLGSVYSAAMVTALTLLAFPLLLLHAERISLVFLLLFLQSFLLLHLLAAGIPVTTPGPFTVPWQAVSAWALMATQTFYSTGHQPVFPAIHWHAAFVGFPEGHGSCTWLPALLVGANTFASHLLFAVGCPLLLLWPFLCESQGLRKRQQPPGNEADARVRPEEEEEPLMEMRLRDAPQHFYAALLQLGLKYLFILGIQILACALAASILRRHLMVWKVFAPKFIFEAVGFIVSSVGLLLGIALVMRVDGAVSSWFRQLFLAQQR”, the protein production was “failed”. For “MASRSDSAALSRDVPGAAFCGSRDMQKKHLFLALLVTALWGLNFPITKLGLASIDPLLLTALRFTLAALPWVFLVPRPPVAFAWLAAYGLIFGVAMWALINLGIDHGVAPGTAALLIQFSAFFSLGWGVLLFGERLRLQQVLATAIALWGLLRIIGDSPGHATSLGYALLLVSAFSWSVGNVIIKRCGVREVFAFVVWASLFAPLPLLALTWISHGAAPFLQLAGQVSAGAALSLMFQVYAATLFCYWGWNLLLREYPVSRVAPLSLLIPVFGMAGSVLILGQRLGAEEGISMGLILLALAVGQFDWRRLITLGRRSL”, the protein production was “failed”. For “MASSFLEEVDRLITLSGITFHASGTGTPELIKIYQDALGNEFPETYKLFLEKYGTLTFNGVSFYGISKRGLSAASIPDVKFATEQARTFGDINKEMIMIKNSGYGSIFSIDTSIIGSEGEPVIVETNLSFKDNTEKKVVANSFGEFLLEEIELSLTDLG”, the protein production was “not failed”. For “MASSSKNITYPPRLYPEGLLKSSLCVFIKFADAKYIWAAHTVHYFLTNQLSVNNFHEIMSVIDGWPIRFSLTEFVDITSLNCDLLDKSTTCEIGHYEFWNEMGVGTYDGPLFIELKHVMDISKEWSYEKRLMVGRLCLLSVGVHGIYHGCRIPLSSAKLVLDPKAFEKYLWGRVAFESLVISVKIVDYKKDICDSWMCPRLVDLDL”, the protein production was “failed”. In the case of “MASSSSLSLSFPSSSLSRTWDYDVFPSFHGEDVRKAFLSQILKKEFGRKAINFFVDHEMERGEFIGPVLKQAIKGSKIALVLLSKNYASSWCCLDELVEIMKKESGQTVITIFYEVDPNEVKKQTGDFGKAFKETCQGKTEEKVQTWRKALEGVGLATIAGFHSSNWFVFFI”, the protein production is reported as “not failed”. With “MASSSSTYRSSSSSDGGNNNPSDSVVTVDERKRKRMLSNRESARRSRMRKQKHVDDLTAQINQLSNDNRQILNSLTVTSQLYMKIQAENSVLTAQMEELSTRLQSLNEIVDLVQSNGAGFGVDQIDGCGFDDRTVGIDGYYDDMNMMSNVNHWGGSVYTNQPIMANDINMY” the protein production was “failed”. In the case of “MASSYTLMLFLCLSIFLIASTEMMAVEGRICERRSKTWTGFCGNTRGCDSQCKRWERASHGACHAQGFPVSGIPSALPTVTHAKQREKMSAMGAYGITYFVGSIIGLLFVQGFEPEKGTLFKEQKGGVSKIDPKP”, the protein production is reported as “failed”. In the case of “MASTAVSELVFFIVTLLITASAVAVLSDQTIHIVYGMQSSSQRTTDMIQENFAIINNPDQIPYDNGYVFYIKNTGSVGFAFDNTSISVLVDGSAVTGKYVKFISLENSSILVPGQVGEIVVNETLSGYNSITISLGTGVSHTFNFEV”, the protein production is reported as “failed”.
